Data on 22 sequences can be found in the Immune Epitope Database (IEDB).

Holding throughout (settings): source organism: Homo sapiens
The target of experiment [1] is HLA-A*03:01. Put plainly: IEDB peptide-MHC binding, purified MHC/competitive/radioactivity; ≥ and ≤ were set here for values at or beyond the usual limits of such assays.
Experiment [2] concerns the target HLA-A*11:01. Described as above.
The target of experiment [3] is HLA-A*02:01. In words: IEDB peptide-MHC binding, purified MHC/competitive/radioactivity; filed as Kd, often an IC50 or EC50 that approximates it; ≥ and ≤ were set here for values at or beyond the usual limits of such assays.
The target of experiment [4] is HLA-B*08:01. The description is as above.
In experiment [5] the target is HLA-B*07:02. The experiment is described as above.
Experiment [6] concerns the target HLA-B*27:01. Put plainly: IEDB peptide-MHC binding, purified MHC/competitive/radioactivity; ≥ and ≤ were set here for values at or beyond the usual limits of such assays.
The target of experiment [7] is HLA-A*11:01. In words: IEDB peptide-MHC binding, purified MHC/competitive/radioactivity; filed as Kd, often an IC50 or EC50 that approximates it; ≥ and ≤ were set here for values at or beyond the usual limits of such assays.
Experiment [8] addresses HLA-A*24:02. The description is as above.
Experiment [9] has as its target HLA-B*27:01. Described as above.
Experiment [10] concerns the target HLA-A*03:01. The description is as above.

A word on the IC50: it is the midpoint of a concentration-inhibition curve. On to ATGFKQSSK, for which the IC50 in experiment [1] is 0.3 µM; in [2] it was 0.097 µM.

In general, Kd refers to the equilibrium constant for the complex coming apart. With ATGFKQSSKAL, the Kd in [3] is ≥ 30 µM; in [4], 3.6 µM.

Consider CITQGKAI, for which the Kd in experiment [3] is ≥ 50 µM.

Consider DLSSCITQGKA, for which the Kd in [3] was ≥ 50 µM.

For the sequence EALQRPVASDF, the Kd in experiment [5] was ≥ 30 µM.

As to GFKQSSKAL, the IC50 in [6] was 0.19 µM.

Regarding GFKQSSKALQR, the IC50 in experiment [1] amounted to 0.81 µM. In [7], the Kd is 2.15 µM.

Consider GKQSSKALQR, for which, in [1], the IC50 turned out to be 0.545 µM. Besides, in experiment [7], the Kd is ≥ 5 µM.

For HSATGFKQSSK, the IC50 was found to be 0.4 µM in experiment [1] and 0.125 µM in experiment [2].

On to HVASGAGEAAI, for which the dissociation constant Kd in experiment [3] is ≥ 50 µM.

Take INKEEALQR: the Kd in [7] is ≥ 30 µM.

Take KALQRPVSDF: the Kd in [8] is ≥ 30 µM.

Take KQSSKALQR: the values for the IC50 in [1] and in experiment [2] were 0.043 µM and 0.273 µM, respectively.

Regarding LTINKEEAL, the Kd in experiment [3] was ≥ 30 µM; in experiment [4] it was 1.9 µM.

Consider NKEEALQR, for which, in experiment [9], the Kd was ≥ 30 µM.

Regarding PLTINKEEAL, the Kd in experiment [3] was ≥ 30 µM.

On to QSSKALQR, for which the Kd in experiment [10] and in experiment [7] was ≥ 30 µM each time.

Regarding SATGFKQSSK, the Kd came out at 5.45 µM in experiment [10] and 3.53 µM in experiment [7].

For the sequence TGFKQSSK, the Kd in [10] and in experiment [7] was ≥ 30 µM in each case.

For the sequence TINKEEAL, the Kd in [3] was ≥ 30 µM.

For the sequence TINKEEALQR, the Kd in [10] and in experiment [7] was ≥ 30 µM throughout.

VASGAGEAAI: the Kd in experiment [3] was ≥ 50 µM.
